Target: TDP-43 (UniProt Q921F2)
Experiment: anti-GFP co-IP, anti-RFP Western blot
Conditions: reference: GFP-FMRP wild type; sites S499

binding against the reference: weaker
Substance: FMRP (from UniProt P35922) GFP-FMRP S499A

Reference: PMC11737055
